Experimental data published in PMC9491720 (Science Advances, 2022).

Target: Flag-tagged PKM2 (pyruvate kinase M2) (human, UniProt P14618-1 1-531, labeled with fluorescence (in the MST assay only))
Assay: MST

Chain of Flag-tagged PKM2 (pyruvate kinase M2) (P14618 whole entry): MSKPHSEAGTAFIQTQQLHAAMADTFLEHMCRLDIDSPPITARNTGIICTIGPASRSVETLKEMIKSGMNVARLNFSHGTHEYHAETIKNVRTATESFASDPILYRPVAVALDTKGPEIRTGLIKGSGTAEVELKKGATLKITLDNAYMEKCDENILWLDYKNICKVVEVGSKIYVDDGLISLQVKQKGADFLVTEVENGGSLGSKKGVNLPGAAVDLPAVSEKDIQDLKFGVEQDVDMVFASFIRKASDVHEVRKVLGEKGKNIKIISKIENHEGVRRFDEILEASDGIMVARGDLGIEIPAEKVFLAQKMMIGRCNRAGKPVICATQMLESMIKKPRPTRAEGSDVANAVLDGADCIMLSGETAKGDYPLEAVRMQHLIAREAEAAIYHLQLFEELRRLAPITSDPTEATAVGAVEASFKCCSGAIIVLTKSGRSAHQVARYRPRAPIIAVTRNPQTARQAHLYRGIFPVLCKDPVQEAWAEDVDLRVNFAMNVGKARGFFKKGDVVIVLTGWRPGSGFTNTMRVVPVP

Kd: 346 nM
B1: recombinant His-tagged Smad7 (natural protein)
chain: MFRTKRSALVRRLWRSRAPGGEDEEEGAGGGGGGGELRGEGATDSRAHGAGGGGPGRAGCCLGKAVRGAKGHHHPHPPAAGAGAAGGAEADLKALTHSVLKKLKERQLELLLQAVESRGGTRTACLLLPGRLDCRLGPGAPAGAQPAQPPSSYSLPLLLCKVFRWPDLRHSSEVKRLCCCESYGKINPELVCCNPHHLSRLCELESPPPPYSRYPMDFLKPTADCPDAVPSSAETGGTNYLAPGGLSDSQLLLEPGDRSHWCVVAYWEEKTRVGRLYCVQEPSLDIFYDLPQGNGFCLGQLNSDNKSQLVQKVRSKIGCGIQLTREVDGVWVYNRSSYPIFIKSATLDNPDSRTLLVHKVFPGFSIKAFDYEKAYSLQRPNDHEFMQQPWTGFTVQISFVKGWGQCYTRQFISSCPCWLEVIFNSR
